Reference: PMC12102759 (2025)

B1: CBL peptide 540-555 (E3 ubiquitin-protein ligase CBL), 16-mer library wild type / YES SH3 (YES1 SH3 domain, residues 90-152) (parent complex)
chain 1: RDLPPPPPPDRPYSVG
chain 2: not shown

Variants of: B1
Assay: proteomic peptide phage display deep mutational scan (ProP-PD DMS): M13 P8 16-mer library selected against immobilised GST-tagged bait for four days (rounds), NGS of the eluted pools per day and pseudo-replica; bait immobilised on MaxiSorp plates (10 µg), library pre-cleared on GST, 2 h binding at 4 °C, five washes; one round per day, days 1-4; value from days 2 and 3

Variant	screen value
chain 1 V15S	0.00131 average fractional NGS count over selection days 2 and 3 (reads of this peptide / all reads for the bait, averaged over …
chain 1 V15L	0.000286 average fractional NGS count over selection days 2 and 3 (reads of this peptide / all reads for the bait, averaged over …
chain 1 V15R	7.8e-05 average fractional NGS count over selection days 2 and 3 (reads of this peptide / all reads for the bait, averaged over …
chain 1 V15E	0.00362 average fractional NGS count over selection days 2 and 3 (reads of this peptide / all reads for the bait, averaged over …
chain 1 V15T	0.000212 average fractional NGS count over selection days 2 and 3 (reads of this peptide / all reads for the bait, averaged over …
chain 1 V15Y	0.00192 average fractional NGS count over selection days 2 and 3 (reads of this peptide / all reads for the bait, averaged over …
chain 1 V15N	0.00181 average fractional NGS count over selection days 2 and 3 (reads of this peptide / all reads for the bait, averaged over …
chain 1 V15F	0.00636 average fractional NGS count over selection days 2 and 3 (reads of this peptide / all reads for the bait, averaged over …
chain 1 V15P	0.00539 average fractional NGS count over selection days 2 and 3 (reads of this peptide / all reads for the bait, averaged over …
chain 1 R11K	0.000739 average fractional NGS count over selection days 2 and 3 (reads of this peptide / all reads for the bait, averaged over …
chain 1 R11G	0.00318 average fractional NGS count over selection days 2 and 3 (reads of this peptide / all reads for the bait, averaged over …
chain 1 R11M	0.00776 average fractional NGS count over selection days 2 and 3 (reads of this peptide / all reads for the bait, averaged over …
chain 1 R11Y	0.000176 average fractional NGS count over selection days 2 and 3 (reads of this peptide / all reads for the bait, averaged over …
chain 1 R11T	0.00408 average fractional NGS count over selection days 2 and 3 (reads of this peptide / all reads for the bait, averaged over …
chain 1 R11Q	0.00199 average fractional NGS count over selection days 2 and 3 (reads of this peptide / all reads for the bait, averaged over …
chain 1 R11H	0.000484 average fractional NGS count over selection days 2 and 3 (reads of this peptide / all reads for the bait, averaged over …
chain 1 R11F	0.00146 average fractional NGS count over selection days 2 and 3 (reads of this peptide / all reads for the bait, averaged over …
chain 1 R11V	0.00622 average fractional NGS count over selection days 2 and 3 (reads of this peptide / all reads for the bait, averaged over …
chain 1 R11S	0.000485 average fractional NGS count over selection days 2 and 3 (reads of this peptide / all reads for the bait, averaged over …
chain 1 R11E	0.000556 average fractional NGS count over selection days 2 and 3 (reads of this peptide / all reads for the bait, averaged over …
chain 1 R11A	8.11e-05 average fractional NGS count over selection days 2 and 3 (reads of this peptide / all reads for the bait, averaged over …
chain 1 Y13Q	0.00091 average fractional NGS count over selection days 2 and 3 (reads of this peptide / all reads for the bait, averaged over …
chain 1 Y13K	0.000696 average fractional NGS count over selection days 2 and 3 (reads of this peptide / all reads for the bait, averaged over …
chain 1 Y13R	0.000326 average fractional NGS count over selection days 2 and 3 (reads of this peptide / all reads for the bait, averaged over …
chain 1 Y13H	0.000183 average fractional NGS count over selection days 2 and 3 (reads of this peptide / all reads for the bait, averaged over …

Variant	screen value
chain 1 Y13G	8.54e-05 average fractional NGS count over selection days 2 and 3 (reads of this peptide / all reads for the bait, averaged over …
chain 1 Y13N	0.00025 average fractional NGS count over selection days 2 and 3 (reads of this peptide / all reads for the bait, averaged over …
chain 1 Y13E	0.000222 average fractional NGS count over selection days 2 and 3 (reads of this peptide / all reads for the bait, averaged over …
chain 1 Y13I	0.00384 average fractional NGS count over selection days 2 and 3 (reads of this peptide / all reads for the bait, averaged over …
chain 1 Y13S	0.00123 average fractional NGS count over selection days 2 and 3 (reads of this peptide / all reads for the bait, averaged over …
chain 1 P12Q	0.0162 average fractional NGS count over selection days 2 and 3 (reads of this peptide / all reads for the bait, averaged over …
chain 1 P12A	0.00443 average fractional NGS count over selection days 2 and 3 (reads of this peptide / all reads for the bait, averaged over …
chain 1 P12D	0.00117 average fractional NGS count over selection days 2 and 3 (reads of this peptide / all reads for the bait, averaged over …
chain 1 P12M	0.0175 average fractional NGS count over selection days 2 and 3 (reads of this peptide / all reads for the bait, averaged over …
chain 1 P12V	0.002 average fractional NGS count over selection days 2 and 3 (reads of this peptide / all reads for the bait, averaged over …
chain 1 P12L	0.0025 average fractional NGS count over selection days 2 and 3 (reads of this peptide / all reads for the bait, averaged over …
chain 1 P12G	0.000184 average fractional NGS count over selection days 2 and 3 (reads of this peptide / all reads for the bait, averaged over …
chain 1 P12N	0.000558 average fractional NGS count over selection days 2 and 3 (reads of this peptide / all reads for the bait, averaged over …
chain 1 P12S	0.00406 average fractional NGS count over selection days 2 and 3 (reads of this peptide / all reads for the bait, averaged over …
chain 1 P12K	0.00165 average fractional NGS count over selection days 2 and 3 (reads of this peptide / all reads for the bait, averaged over …
chain 1 P12Y	0.000171 average fractional NGS count over selection days 2 and 3 (reads of this peptide / all reads for the bait, averaged over …
chain 1 P12W	0.00363 average fractional NGS count over selection days 2 and 3 (reads of this peptide / all reads for the bait, averaged over …
chain 1 P12F	0.00458 average fractional NGS count over selection days 2 and 3 (reads of this peptide / all reads for the bait, averaged over …
chain 1 P4M	0.000259 average fractional NGS count over selection days 2 and 3 (reads of this peptide / all reads for the bait, averaged over …
chain 1 P4A	0.000327 average fractional NGS count over selection days 2 and 3 (reads of this peptide / all reads for the bait, averaged over …
chain 1 P4H	8.18e-05 average fractional NGS count over selection days 2 and 3 (reads of this peptide / all reads for the bait, averaged over …
chain 1 P4Q	0.000154 average fractional NGS count over selection days 2 and 3 (reads of this peptide / all reads for the bait, averaged over …
chain 1 P4F	9.76e-05 average fractional NGS count over selection days 2 and 3 (reads of this peptide / all reads for the bait, averaged over …
chain 1 P4T	0.00019 average fractional NGS count over selection days 2 and 3 (reads of this peptide / all reads for the bait, averaged over …
chain 1 P4I	0.000839 average fractional NGS count over selection days 2 and 3 (reads of this peptide / all reads for the bait, averaged over …

Variant	screen value
chain 1 L3M	0.00032 average fractional NGS count over selection days 2 and 3 (reads of this peptide / all reads for the bait, averaged over …
chain 1 L3I	0.00353 average fractional NGS count over selection days 2 and 3 (reads of this peptide / all reads for the bait, averaged over …
chain 1 L3N	7.55e-05 average fractional NGS count over selection days 2 and 3 (reads of this peptide / all reads for the bait, averaged over …
chain 1 L3S	6.99e-05 average fractional NGS count over selection days 2 and 3 (reads of this peptide / all reads for the bait, averaged over …
chain 1 L3E	5.03e-05 average fractional NGS count over selection days 2 and 3 (reads of this peptide / all reads for the bait, averaged over …
chain 1 L3G	7.18e-05 average fractional NGS count over selection days 2 and 3 (reads of this peptide / all reads for the bait, averaged over …
chain 1 P9L	0.00194 average fractional NGS count over selection days 2 and 3 (reads of this peptide / all reads for the bait, averaged over …
chain 1 P9E	0.000429 average fractional NGS count over selection days 2 and 3 (reads of this peptide / all reads for the bait, averaged over …
chain 1 P9V	0.00298 average fractional NGS count over selection days 2 and 3 (reads of this peptide / all reads for the bait, averaged over …
chain 1 P9D	0.00109 average fractional NGS count over selection days 2 and 3 (reads of this peptide / all reads for the bait, averaged over …
chain 1 P9F	0.000295 average fractional NGS count over selection days 2 and 3 (reads of this peptide / all reads for the bait, averaged over …
chain 1 P9T	0.000876 average fractional NGS count over selection days 2 and 3 (reads of this peptide / all reads for the bait, averaged over …
chain 1 P9G	0.00146 average fractional NGS count over selection days 2 and 3 (reads of this peptide / all reads for the bait, averaged over …
chain 1 P9W	0.00602 average fractional NGS count over selection days 2 and 3 (reads of this peptide / all reads for the bait, averaged over …
chain 1 P9R	0.000295 average fractional NGS count over selection days 2 and 3 (reads of this peptide / all reads for the bait, averaged over …
chain 1 P9I	0.000523 average fractional NGS count over selection days 2 and 3 (reads of this peptide / all reads for the bait, averaged over …
chain 1 P9K	0.00297 average fractional NGS count over selection days 2 and 3 (reads of this peptide / all reads for the bait, averaged over …
chain 1 D10A	0.00828 average fractional NGS count over selection days 2 and 3 (reads of this peptide / all reads for the bait, averaged over …
chain 1 D10P	0.000173 average fractional NGS count over selection days 2 and 3 (reads of this peptide / all reads for the bait, averaged over …
chain 1 D10S	0.000232 average fractional NGS count over selection days 2 and 3 (reads of this peptide / all reads for the bait, averaged over …
chain 1 D10G	0.00202 average fractional NGS count over selection days 2 and 3 (reads of this peptide / all reads for the bait, averaged over …
chain 1 D10N	0.000163 average fractional NGS count over selection days 2 and 3 (reads of this peptide / all reads for the bait, averaged over …
chain 1 D10L	0.00104 average fractional NGS count over selection days 2 and 3 (reads of this peptide / all reads for the bait, averaged over …
chain 1 D10I	0.000128 average fractional NGS count over selection days 2 and 3 (reads of this peptide / all reads for the bait, averaged over …
chain 1 D10Q	0.000233 average fractional NGS count over selection days 2 and 3 (reads of this peptide / all reads for the bait, averaged over …
